Target: HA-TRIP12
Experiment: co-IP (IP-GFP, immunoblot for TRIP12; band intensity printed above lanes)
Settings: HEK293T cells, harvested for lysis 48 h after transfection; HA-TRIP12 co-transfected

- ratio to parent: 0.16
Substance: GFP-EZH2 wildtype (from UniProt Q15910) K634R

From paper PMC10685657
